Experimental data as given in patent US20250296971A1, “GASTRIC INHIBITORY PEPTIDE RECEPTOR LIGANDS” (priority 2021, published 2025).
*1 amine or outer side, *2 acyl side, *3 side chain or, on linkers, in order; H or OH if unused. Bridges are numbered along the chain shown (N, C = ends). Primed or numbered codes have the meaning given here. [ ]: non-standard residue; d: D form. The star is where a group is joined. Ttds = 1,13-diamino-4,7,10-trioxatridecan-succinamic acid, NCCCOCCOCCOCCCNC(=O)CCC(=O)*; DOTA(In) = O=C1CN2CCN3CCN(CC(=O)*)CCN(CC2)CC(=O)[O][In]([O]1)[O]C(=O)C3; DOTA(Lu) = O=C1CN2CCN3CCN(CC(=O)*)CCN(CC2)CC(=O)[O][Lu]([O]1)[O]C(=O)C3; NH(1-deoxy-D-glucityl) = OC[C@@H](O)[C@@H](O)[C@H](O)[C@@H](O)CN*; (dE)(AGLU) = D-glutamic acid bearing 1-amino-1-deoxy-D-glucitol; APAc″ = 4-amino-1-carboxymethylpiperidine, NC1CCN(CC(=O)*)CC1; dE(AGLU) = D-glutamic acid bearing 1-amino-1-deoxy-D-glucitol; Pro(trans-4-NH2) = O=C([C@@H]1C[C@@H](N[*:3])CN1[*:1])[*:2]; DOTA = O=C(O)CN1CCN(CC(=O)O)CCN(CC(=O)*)CCN(CC(=O)O)CC1; 3MeBn = 3-methyl-benzylidene (derived from 1,3-xylene); 2Lut = 2,6-lutidylidene bridge between two thiols; N(CH2CH2CO)Gly = O=C(CN(CCC(=O)[*:3])[*:1])[*:2]; Trp(5-Br) = N[C@@H](Cc1c[nH]c2ccc(Br)cc12)C(=O)O; Trp(5-Cl) = N[C@@H](Cc1c[nH]c2ccc(Cl)cc12)C(=O)O; Pyridine(2,6-diCH2) = c1cc(C[*:1])nc(C[*:2])c1; Cysol = L-cysteinol, OC[C@H](CS[*:3])N[*:1]; Pro(trans-4-F) = O=C(O)[C@@H]1C[C@@H](F)CN1; APAc = 4-amino-1-carboxymethylpiperidine; mXylylene = c1cc(C[*:1])cc(C[*:2])c1; LuDOTA = DOTA Lutetium(III) complex; Glutaryl = O=C(CCCC(=O)[*:2])[*:1]; AGLU = 1-amino-1-deoxy-D-glucitol; Hyp = O=C(O)[C@@H]1C[C@@H](O)CN1; Cysteamide = C(CS[*:3])N[*:1]; Suc = O=C(CCC(=O)[*:2])[*:1]; ZnDOTA = DOTA zinc complex; hSer = N[C@@H](CCO)C(=O)O; αMeS = C[C@](N)(CO)C(=O)O; Api = NC1(C(=O)O)CCNCC1; Nphe′ = N-phenylalanine; Thp = NC1(C(=O)O)CCOCC1; Aib = CC(C)(N)C(=O)O; Nlys = NCCCCNCC(=O)O; Nleu′ = N-leucine; Sar = CNCC(=O)O

Target: human Gastric Inhibitory Peptide Receptor (human) (UniProt P48546)
Experiment: FACS competition with GIP-057 on CHO-K1-hGIPR cells; pIC50 category A: >8.0

Sequence of human Gastric Inhibitory Peptide Receptor (human) (P48546 22-466 limits assumed): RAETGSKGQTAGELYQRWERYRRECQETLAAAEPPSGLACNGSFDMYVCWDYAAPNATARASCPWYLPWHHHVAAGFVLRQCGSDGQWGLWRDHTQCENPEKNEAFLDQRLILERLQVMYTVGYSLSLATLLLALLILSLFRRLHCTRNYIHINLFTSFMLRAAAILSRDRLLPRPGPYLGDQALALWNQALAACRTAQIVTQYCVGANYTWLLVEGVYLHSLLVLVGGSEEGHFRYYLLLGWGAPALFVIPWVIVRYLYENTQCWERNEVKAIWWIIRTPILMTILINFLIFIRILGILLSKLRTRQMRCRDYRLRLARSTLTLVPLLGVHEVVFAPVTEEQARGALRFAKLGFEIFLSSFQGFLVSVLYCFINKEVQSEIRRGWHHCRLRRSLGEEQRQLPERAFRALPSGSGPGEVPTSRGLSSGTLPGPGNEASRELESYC

## {AGLU-Glutaryl}-DW[Trp(5-Cl)][Hyp]E[dL]C[Thp]LIC-NH2 (linker 7-11 via Pyridine(2,6-diCH2)) [AGLU-Glutar-Asp-Trp-5Clw-Hyp-Glu-leu-[Cys(2Lut)-Thp-Leu-Ile-Cys]-NH2]
  pIC50: > 8 pic50

## {LuDOTA-Ttds}-DW[Trp(5-Cl)]PE[dL]C[Thp]LI[Cysteamide] (linker 7-11 via mXylylene) [LuDOTA-Ttds-Asp-Trp-5Clw-Pro-Glu-leu-[Cys(3MeBn)-Thp-Leu-Ile-AET]]
  pIC50: > 8 pic50

## {AGLU-Glutaryl-APAc}-DW[Trp(5-Br)][Pro(trans-4-NH2)]E[dL]C[Api](DOTA)LIC-{APAc-dE(AGLU)-NH2} (linker 7-11 via Pyridine(2,6-diCH2)) [AGLU-Glutar-APAc-Asp-Trp-5Brw-Tap-Glu-leu-[Cys(2Lut)-Apc(DOTA)-Leu-Ile-Cys]-APAc-glu(AGLU)-NH2]
  pIC50: > 8 pic50

## {DOTA(In)-Ttds}-DW[Trp(5-Cl)]PE[dL]C[αMeS]LI[Cysteamide] (linker 7-11 via 3MeBn; also: DOTA as indium complex (InDOTA)) [InDOTA-Ttds-Asp-Trp-5Clw-Pro-Glu-leu-[Cys(3MeBn)-Ams-Leu-Ile-AET]]
  pIC50: > 8 pic50

## {AGLU-Glutaryl}-DW[Trp(5-Cl)][Hyp]E[dL]C[Thp]LIC-{APAc-dE(AGLU)-NH2} (linker 7-11 via Pyridine(2,6-diCH2)) [AGLU-Glutar-Asp-Trp-5Clw-Hyp-Glu-leu-[Cys(2Lut)-Thp-Leu-Ile-Cys]-APAc-glu(AGLU)-NH2]
  pIC50: > 8 pic50

## Ac-DW[Trp(5-Cl)][Hyp]E[dL]C[Thp]LIC-NH2 (linker 7-11 via Pyridine(2,6-diCH2)) [Ac-Asp-Trp-5Clw-Hyp-Glu-leu-[Cys(2Lut)-Thp-Leu-Ile-Cys]-NH2]
  pIC50: > 8 pic50

## {LuDOTA-APAc″}-DW[Trp(5-Cl)][Hyp]E[dL]C[Thp]LI[Cysteamide] (linker 7-11 via Pyridine(2,6-diCH2)) [LuDOTA-APAc-Asp-Trp-5Clw-Hyp-Glu-leu-[Cys(2Lut)-Thp-Leu-Ile-AET]]
  pIC50: > 8 pic50

## Ac-DW[Trp(5-Cl)][Pro(trans-4-F)]E[dL]C[Thp]LIC-NH2 (linker 7-11 via Pyridine(2,6-diCH2)) [Ac-Asp-Trp-5Clw-4Tfp-Glu-leu-[Cys(2Lut)-Thp-Leu-Ile-Cys]-NH2]
  pIC50: > 8 pic50

## Ac-DW[Trp(5-Cl)][Nlys]E[dL]C[Thp]LIC-NH2 (linker 7-11 via Pyridine(2,6-diCH2)) [Ac-Asp-Trp-5Clw-Nlys-Glu-leu-[Cys(2Lut)-Thp-Leu-Ile-Cys]-NH2]
  pIC50: > 8 pic50

## Suc-W[Trp(5-Cl)][Hyp]E[dL]C[Thp]LIC-{APAc-Lys(LuDOTA)-NH2} (linker 6-10 via 2Lut; also: Lu complex of DOTA) [HO-Succinyl-Trp-5Clw-Hyp-Glu-leu-[Cys(2Lut)-Thp-Leu-Ile-Cys]-APAc-Lys(LuDOTA)-NH2]
  pIC50: > 8 pic50

## {LuDOTA-Ttds}-DW[Trp(5-Cl)][Hyp]E[dL]C[Aib]LI[Cysteamide] (linker 7-11 via mXylylene) [LuDOTA-Ttds-Asp-Trp-5Clw-Hyp-Glu-leu-[Cys(3MeBn)-Aib-Leu-Ile-AET]]
  pIC50: > 8 pic50

## Ac-DW[Trp(5-Cl)][Sar]E[dL]C[Thp]LIC-NH2 (linker 7-11 via Pyridine(2,6-diCH2)) [Ac-Asp-Trp-5Clw-Nmg-Glu-leu-[Cys(2Lut)-Thp-Leu-Ile-Cys]-NH2]
  pIC50: > 8 pic50

## {AGLU-Glutaryl-APAc}-DW[Trp(5-Cl)][Pro(trans-4-NH2)]E[dL]C[Api](DOTA)LIC-{APAc-dE(AGLU)-NH2} (linker 7-11 via Pyridine(2,6-diCH2)) [AGLU-Glutar-APAc-Asp-Trp-5Clw-Tap-Glu-leu-[Cys(2Lut)-Apc(DOTA)-Leu-Ile-Cys]-APAc-glu(AGLU)-NH2]
  pIC50: > 8 pic50

## Ac-DW[Trp(5-Cl)][Hyp]E[dL]C[Thp]LIC-OH (linker 7-11 via Pyridine(2,6-diCH2)) [Ac-Asp-Trp-5Clw-Hyp-Glu-leu-[Cys(2Lut)-Thp-Leu-Ile-Cys]-OH]
  pIC50: > 8 pic50

## Ac-DW[Trp(5-Cl)][N(CH2CH2CO)Gly](NH(1-deoxy-D-glucityl))E[dL]C[Thp]LIC-NH2 (linker 7-11 via Pyridine(2,6-diCH2)) [Ac-Asp-Trp-5Clw-Nglu(AGLU)-Glu-leu-[Cys(2Lut)-Thp-Leu-Ile-Cys]-NH2]
  pIC50: > 8 pic50

## {DOTA(In)-Ttds}-DW[Trp(5-Cl)]PE[dL]C[Aib]LI[Cysteamide] (linker 7-11 via 2Lut; also: DOTA as indium complex (InDOTA)) [InDOTA-Ttds-Asp-Trp-5Clw-Pro-Glu-leu-[Cys(2Lut)-Aib-Leu-Ile-AET]]
  pIC50: > 8 pic50

B1: Ac-Asp-Trp-5Clw-Tap(AGLU-Glutar)-Glu-leu-[Cys(2Lut)-Thp-Leu-Ile-Cys]-NH2 (peptide)
peptide: Ac-DW[Trp(5-Cl)][Pro(trans-4-NH2)]E[dL]C[Thp]LIC-NH2
modifications: linker 7-11 via Pyridine(2,6-diCH2); not fully specified (residue 4); printed as Ac-Asp-Trp-5Clw-Tap(AGLU-Glutar)-Glu-leu-[Cys(2Lut)-Thp-Leu-Ile-Cys]-NH2
  pIC50: > 8 pic50

## Ac-DW[Trp(5-Cl)][Nleu′]E[dL]C[Thp]LIC-NH2 (linker 7-11 via Pyridine(2,6-diCH2)) [Ac-Asp-Trp-5Clw-Nleu-Glu-leu-[Cys(2Lut)-Thp-Leu-Ile-Cys]-NH2]
  pIC50: > 8 pic50

## {LuDOTA-Ttds}-DW[Trp(5-Cl)]PE[dL]C[Aib]LI[Cysteamide] (linker 7-11 via Pyridine(2,6-diCH2)) [LuDOTA-Ttds-Asp-Trp-5Clw-Pro-Glu-leu-[Cys(2Lut)-Aib-Leu-Ile-AET]]
  pIC50: > 8 pic50

B2: Ac-Asn-Trp-5Clw-Hyp-Glu-leu-[Cys(2Lut)-Thp-Leu-Ile-Cys]-NH2 (peptide)
peptide: Ac-NW[Trp(5-Cl)][Hyp]E[dL]C[Thp]LIC-NH2
modifications: linker 7-11 via Pyridine(2,6-diCH2)
SMILES: CC[C@H](C)[C@@H]1NC(=O)[C@H](CC(C)C)NC(=O)C2(CCOCC2)NC(=O)[C@@H](NC(=O)[C@@H](CC(C)C)NC(=O)[C@H](CCC(=O)O)NC(=O)[C@@H]2C[C@@H](O)CN2C(=O)[C@H](Cc2c[nH]c3ccc(Cl)cc23)NC(=O)[C@H](Cc2c[nH]c3ccccc23)NC(=O)[C@H](CC(N)=O)NC(C)=O)CSCc2cccc(n2)CSC[C@@H](C(N)=O)NC1=O
  pIC50: > 8 pic50

B3: AGLU-Glutar-Asp-Trp-5Brw-Tap-Glu-leu-[Cys(2Lut)-Apc(DOTA)-Leu-Ile-Cys]-APAc-glu(AGLU)-NH2 (peptide)
peptide: DWXXEXCXLIC
modifications: N-term AGLU-Glutar; 5Brw; Tap; leu (D-Leu); thioether cycle [Cys(2Lut)..Cys]; Apc(DOTA); C-term APAc-glu(AGLU)-NH2
  pIC50: > 8 pic50

## Suc-W[Trp(5-Cl)][Hyp]E[dL]C[Api](DOTA(Lu))LI[Cysteamide] (linker 6-10 via 2Lut; also: Lu complex of DOTA) [HO-Succinyl-Trp-5Clw-Hyp-Glu-leu-[Cys(2Lut)-Apc(LuDOTA)-Leu-Ile-AET]]
  pIC50: > 8 pic50

## Ac-DW[Trp(5-Cl)][Hyp]E[dL]C[Thp]LIC-{APAc-(dE)(AGLU)-NH2} (linker 7-11 via Pyridine(2,6-diCH2)) [Ac-Asp-Trp-5Clw-Hyp-Glu-leu-[Cys(2Lut)-Thp-Leu-Ile-Cys]-APAc-glu(AGLU)-NH2]
  pIC50: > 8 pic50

## Ac-DW[Trp(5-Cl)][Nphe′]E[dL]C[Thp]LIC-NH2 (linker 7-11 via Pyridine(2,6-diCH2)) [Ac-Asp-Trp-5Clw-Nphe-Glu-leu-[Cys(2Lut)-Thp-Leu-Ile-Cys]-NH2]
  pIC50: > 8 pic50

## {DOTA(In)-Ttds}-DW[Trp(5-Cl)]PE[dL]C[Thp]LI[Cysteamide] (linker 7-11 via mXylylene; also: indium(III) complexed in DOTA) [InDOTA-Ttds-Asp-Trp-5Clw-Pro-Glu-leu-[Cys(3MeBn)-Thp-Leu-Ile-AET]]
  pIC50: > 8 pic50

## {LuDOTA-APAc″}-DW[Trp(5-Cl)]PE[dL]C[Aib]LI[Cysteamide] (linker 7-11 via mXylylene) [LuDOTA-APAc-Asp-Trp-5Clw-Pro-Glu-leu-[Cys(3MeBn)-Aib-Leu-Ile-AET]]
  pIC50: > 8 pic50

## Suc-W[Trp(5-Cl)][Hyp]E[dL]C[Thp]LIC-{APAc-Lys(InDOTA)-NH2} (linker 6-10 via 2Lut; also: In complex of DOTA) [HO-Succinyl-Trp-5Clw-Hyp-Glu-leu-[Cys(2Lut)-Thp-Leu-Ile-Cys]-APAc-Lys(InDOTA)-NH2]
  pIC50: > 8 pic50

## {LuDOTA-Ttds}-DW[Trp(5-Cl)]PE[dL]C[αMeS]LI[Cysteamide] (linker 7-11 via mXylylene) [LuDOTA-Ttds-Asp-Trp-5Clw-Pro-Glu-leu-[Cys(3MeBn)-Ams-Leu-Ile-AET]]
  pIC50: > 8 pic50

## {DOTA(In)-Ttds}-DW[Trp(5-Cl)][Sar]E[dL]C[Aib]LI[Cysteamide] (linker 7-11 via 3MeBn; also: DOTA as indium complex (InDOTA)) [InDOTA-Ttds-Asp-Trp-5Clw-Nmg-Glu-leu-[Cys(3MeBn)-Aib-Leu-Ile-AET]]
  pIC50: > 8 pic50

## {AGLU-Glutaryl}-[hSer]W[Trp(5-Br)][Pro(trans-4-NH2)]E[dL]C[Api](DOTA)LIC-{APAc-dE(AGLU)-NH2} (linker 7-11 via Pyridine(2,6-diCH2)) [AGLU-Glutar-Hse-Trp-5Brw-Tap-Glu-leu-[Cys(2Lut)-Apc(DOTA)-Leu-Ile-Cys]-APAc-glu(AGLU)-NH2]
  pIC50: > 8 pic50

## Ac-DW[Trp(5-Cl)][Hyp]E[dL]C[Thp]LI[Cysol]-OH (linker 7-11 via Pyridine(2,6-diCH2)) [Ac-Asp-Trp-5Clw-Hyp-Glu-leu-[Cys(2Lut)-Thp-Leu-Ile-Cysol]-OH]
  pIC50: > 8 pic50

## {DOTA(In)-Ttds}-DW[Trp(5-Cl)]PE[dL]C[Aib]LI[Cysteamide] (linker 7-11 via 3MeBn; also: DOTA as indium complex (InDOTA)) [InDOTA-Ttds-Asp-Trp-5Clw-Pro-Glu-leu-[Cys(3MeBn)-Aib-Leu-Ile-AET]]
  pIC50: > 8 pic50

## {LuDOTA-Ttds}-DW[Trp(5-Cl)][Sar]E[dL]C[Aib]LI[Cysteamide] (linker 7-11 via mXylylene) [LuDOTA-Ttds-Asp-Trp-5Clw-Nmg-Glu-leu-[Cys(3MeBn)-Aib-Leu-Ile-AET]]
  pIC50: > 8 pic50

## {AGLU-Glutaryl}-DW[Trp(5-Cl)][Hyp]E[dL]C[Api](ZnDOTA)LI[Cysteamide] (linker 7-11 via Pyridine(2,6-diCH2)) [AGLU-Glutar-Asp-Trp-5Clw-Hyp-Glu-leu-[Cys(2Lut)-Apc(ZnDOTA)-Leu-Ile-AET]]
  pIC50: > 8 pic50
